We go through 16 sequences from a protein production outcome set (Wang et al. 2014).

A short description of this series: label from the status in PepcDB records.

In the case of “MRSNTFIQFAATLVAFVAACLFPAWSMAATHNVVLSAETLPNGQPAYKLLSHTSSNGTVPGYATEATIPGPTLFIKTGDKINVQLTNNTQSPVSFTAPGLSTGNSALAAPGQTKSYRLNARKAGTFAYHDEKAPMLGLFGAIVVDESNGHVQSYVDGDGTIVSTKRSQLSKEFVLFMVGSTFWGAEISRNGNQQPLWANPDLGAYQDDLLRFHVLAVGPGHTFHLHAHRWIEPGSSQKTPHIIDTHILDDLNNSHVFTIKAGTGVGPGVWQLHCHLISHMQSGMNSRIHVVARDSGQSADSIVGASPSGAIFLNDSDQPGLVTFIVSDEPAGWFRSARGDALSPVTHTKSLEIIPPGSSVHFVMSDTAGVHTITSLLWPSEAGHNDHGGDHFMIPFDETKAYRGGAILKLNVPGLYVFTCKIHPFMFAAVIVDDPATDGLDLGNTIDLISGVKNLPTSSDLATRLLHTFFVTTVPKNWQDFTSPNPWKIAYPDVDVVVDIGKVSLPAVLNARYGNDISLSPLPRPAVPGIGEVWVDTQFEKTAGKTKPGTITVVDTSNWTLKRKIALPQINMNNPHNMWPNRDHSIVYTTQWFDNKLTAIKQKTGKLASNVQVGDSPSHVMTLPNTDDITVAINGENDIVIIPAGTTKVNYALLTQSHGQAPGNPHGHWISADGKRIITPNINTHDAGFYDVEDGKIVARTATGEGQPGAHPIAIGMLPDSSKVYAANLLHHSVSVMDGDGNFIKNINLIEHYDPISGAINGPIGILPIQSPVSPDGKVMVTASYGGQIVVIDTRTDSIVKSLPCDPGCHGANFGAKKGGGYYAYITNKFSNRLIVVDPDPNGDGDLSDAEIAGAVTLVADSRVPKDDKISSLAGFGGQGIVALPNVYNGWVQNLNSQWSAGLTDQQRNPVQ”, the protein production entry is “failed”. Consider “MRSRVVREGSVGLMLVAGVGALAGLIFWLRGVSLGQDRYDVIVEFNDTAGLTVGTPVIYRGVQVGQVIDITAQSNSVLVRIQIQPASLAIPRDSVISAQISSLLGSPNLTIEPKRNIPAEVLAKTQPRSPNCDRAVILCNGSVVEGAQSASFASILTSIATLVSEIEQAKLVNTLSQTSRDASEAARSIRQLSSSLQQQIPPLRETLNAAQGAASQVEAAIAENRQSVRTTLTNLESSSQELQDILNSLEPAIDKANSGKLVDNLNELSANLAVASRNIRDVSTALNSPENLLTLQQTLDSARITFQNAQKITTDLNRLTGDPAVIENIRRLINSLGRLLSSTGALQEQVTDLKSLPLLPVSESPAGEAVVRRPNQP”, for which the protein production result is reported as “failed”.

Turning to “MRSSKMDMPIVLSKRHRRLRSMKDCEPGLPYNEIVENGKRIDLCYSKQYKKYTKKIEIRVGTSILHNKLLRIFPNIVKIYSKHFINLPDLITENTEKRELIFIELENLIIGGGTSGLGVLSEISKEEKTLLISSNIESNTDIPYPLPQINKDEFSKLLRDTINENKDRILEGILLGKFDEGIGFLTKDKILMVRAKRVFLATGGRYIPPIFDGNDIPGIISKNLYLRYGNRITKAIALGNSDDIIKVLFKVEKRVIINNGVLFLSKYYKELIDELGVEIINTNNLKVKREKGGMLKIITNERSFDSNILVYAIVKQPKIDHSYNIGIPYNFSEYFHIYMPIHSIEGKTNDNIYIVGGMRGISDEYTSFLSGKTAVNEKYLDEFINNLKDYTYIYDYYYQKNPKENPSPYIYGNKGYVCECEDITLSEVNRQVGRGFSKVEEIKRTIGLGTGECQGKLCTYSLGSFLGDRQLITFRTPLYRMVI”, the protein production entry is “failed”. For the sequence “MRTDFNVFTTGGAPMKQIIRQFSIGTVAYAIMQVASAQVAITNVVPMNIPGQGTEIRVMFNGLPPQPQAYQLEQPARLILDFDKAGQKLAKSLIPVTTNEASSIDVSSDDKRARVVVNLKDAGAFTTRVEGNVFILKINNIQSTATPVATSAPAPQQGIGNIGFQRGAQGEGLVVIDLQGTNTPVDVQQQGSKVVVRFPGIKIPTHLARRLNTTDFATPVASIDSYNDGSNGVISIQSTGSYEYMAYQAENKLTISLKRPQDNVRLNSKNNQNYTGKKISLDFQDIEVRRVLQLLADFTNINMVTADSVQGNITLHLKDVPWDQALDIILKTKNLDKRRNGNVIWIAPVSELIKSEEDEAKAIAQSTKLAPLQTEYILLKYAKAADIEKLITQGRNSGTSNSNTNGSATVEPLGDSVGTLLSPRGTISLDPRTNTLIINDTSQKIDQIRKMIDLLDIPVKQVMIEARIVRATTSFSKEMGVKWGILSQGINQNSNLLVGGSETTLWNLRNPDSNGTYTIERPDNLNVDLGVTTTGASSIAFGLISLSDFMLDLELSALQADGYGEVISTPKVMSADKQKAKVATGVEVPYQSTTNSAAGSTATTSFKEALLSLEVTPNITPDGKILMELNIANDSINSYAQNGEAILNKNTINTNVLVNNGETVVLGGVFEQTTNNAVTKVPFLGDLPYVGRLFKKTAKSEAKNELLIFVTPRIVNDTIVGNH”, the protein production result is listed as “failed”. “MRTILFKSVPFSKEAVTLALESGVDGIIVPEKHVAPVQALARCKVLCDDAVCTLELTAKADEEEAASRLAAGEDVVLARGWEIIPVENLLARSDRVTVEVASLDEARLAAGILERGVSTVVVLPQAVTELKAIVQELKLSQGRIDLAPAVVTAVRPVGLGHRVCVDTMSLLRTGQGMLVGNSSAFTFLVNAETEHNEYVAARPFRINAGAVHAYAVMPGDRTTYLEELRSGSEVLIVGADGATTIATVGRLKVEVRPMLLVEARVGDTVGAVFLQNAETIRLVRADGTPVSVVALREGDEVLCRTDVAGRHFGMRITEDIREA”: the protein production result is reported as “failed”. Then “MRTLNKDEHNYIKQIANIHETLLSQVESNYKCTKLSIALRYEMICSRLEHTNDKIYIYENEGQLIAFIWGHFSNEKSMVNIELLYVEPQFRKLGIATQLKIALEKWAKTMNAKRISNTIHKNNLPMISLNKDLGYQVSHVKMYKDID”, with “not failed”. Then “MRTRIERTEEMVEQLPLVSVLIPTYNRPSYFEKALCSVLEQTYPNIEIIVGDDSTNDETEKLLQKYLCDHSNIIYIKNRSTLGQFENALMLFNEANGEYINFLMDDDVFHVNKIEKMMKYFFNDLDNEIKLVTSHRQVIDDKGKELRHIYSTVRLFEEDTIIEGTELGNKVIVDQKNYIGEPTTVLFRKNDLQEPYGIFDKRRYLCNVDIASWLSLLSKGKAVYIAETLSYFRLHPDQQLNESNKMMDGLEDFSHSIIAGEQYGFLSTEKELDKAITNFLDYARRIVPSSILYTLDYYQKIRAKKINIEKKKQHINNNSSLPKVSILIPAYNRPYYLELALNSALNQTYENIEIIISDDSTNNEVNAMIQPYLREYECITYVKNETPLVAENFNKCVELANGDYMNFLLDDDLFHHEKIERMMKYFLTLENISFVTSYRELIDENGEILPPSTLNMKIAKETTLFEGKELGNYMLKNLKNVVGEPTTVLFNRDLFDGKFGYFKGKAYSAINDIATWLDMMRKGKVVYIHEPLSYFRQHSGQNQKQMHFILMTIEEWIELIIDAYNSGFLSSESEYKESLSYCLENAGFIVKDAVRNGELDQIYNEKIKKGLNKLVAHMFEKESCYCQYCNQQFEKFSPWPAHYDFPKYKFEMWNKDTGICPVCNSMDRERLYRAYIETETDLLNRNYTMLHIAPEAKLRDWFNEYKNITYVCGDLEPKDPLMKEIDVTRITYDSNTFDVILCSHVLEHVPDDDKAMRELYRVLKPNGWGIIQVPIVMNVDFIIENELIVTPQLRKLAFGQEDHVRIYNQSGFIQRLMNAGFKVELYNIAEKQGMKGARKFGLSETDMLYIVRK”, with “failed”; and “MRTSAFVPVLLFALLGALVGCSGGTELTYSGPEEAYKKGVAEMEEGDHQQAIRFFRAVFEYGRGNEWAPDARFKLAMAQRGLNKHLVAANEFQRFTQLYRNDELLPRAEFERANSYYLRSPSYRLDQSDSEQAISLFRLFIDRHPNHELVPEAEEKINELRAKLARKKYEAGRLYEQRDMWQAATTVYERAFDQYPDTPWADDALLGAVRTYIRYADRSVESKQAERYQKAIENYNRLTQLFPESTLLGRAEDLYSEAREKLDRAQAQQGEQSLAQEDASSGSN”, with “failed”. Regarding “MRTTAAEEAGLETETARRRFSRASLVNVAGNAVKILVEGAVGLAFGSVALLADAAHSVADLVASAVVLVWGRSVYTDPDENHPHGHQRVEPLAALFVGSLIVLLGLNLFYESATGLVAGPEVQFHPLLVGALLFAMADMYLLYWYTTHINESVGSSALEALAIDCRNDIYTTIAALCGVIGVFFGYPLFDAVAGGLVSVLVVYQGFEISRENVSYLVGASPSDQQRQRVVETLTDHPAVHGAHDVAVFYDGTDIEVEAHVEVDGELTLVEAHDIETELVSALRSLESVGDVHLHLDPAGIGEWKDAAVNEQRGPETQTGSPKQ”, the protein production result is recorded as “failed”. On to “MRTVLNILNFVLGGFATTLAWLLATLVSIVLIFTLPLTRSCWEITKLSLFPYGNEAIHVDELNPAAKSVLMNTGGTLLNIFWLLFFGWWLCLMHIASGIAQCVTIIGIPVGIANFKIAAIALWPVGRRVVSVETARAAREANARRRFE”, for which the protein production result is listed as “failed”. Turning to “MRTVLNILNFVLGGFATTLGWLLATLVSIVLIFTLPLTRSCWEITKLSLVPYGNEAIHVDELNPAGKNVLLNTGGTVLNIFWLIFFGWWLCLMHIATGIAQCISIIGIPVGIANFKIAAIALWPVGRRVVSVETAQAAREANARRRFE”, the protein production result was “failed”. The entry for “MRTVTGAILAMNLEVKDFVHRDVEEADRRLREIGARKILLQLPDGLKPYAFDYFTYLSQRYDVILSSSPVYGACDIGPSYLYDRVDAIVQVGHSIMRNVKYPRPVIFIEHYRTVDVEDINTEALKNYRRIGLIYSIQYRPVADRVKRILESKGFEVIIGRSDRRMTYDGQVLGCNFSSVHSVEAEVEAFVIVSTGSFHALGSQISTERPVFLLDLNEMSLRSMEKEADTFIRKRYAQIYRAMDAKRICFLVDTRIGQRREKLARMLMDRARDLGKEAVLAYTDNISDQDIQNMGCDLAVYTGCPRVPIDDQDRFTVPVLTPAEFSMAFFKSSKRYVLDEIVSVDEFTDQLEHHHHHH” is “failed”. On to “MRVARLFRFPVKGFPAEEIPEADVRTGRGIRGDRVAAFTNGSLDIPDDSWHRYSAFTVLKNDTDLQKWQVELDLAEAADSSQPAVADPSATVTLTSPQNETTTFRTDDRDTRATSADFLSARIPPQGDFPRALSVADQGMFDSQAAGVSIINPATVAAISQTADGQAALAPGETELDPLRFRGNVLVDGLAPFEEFALIGKIVRLGGVRLAITQAIERCPATTVNPTTTAVDVNVPRVLASACGHLHCGVYGRILESGLVSTGDEIEIEGDAPRELVKTARTPRFMTVLGSQQICNDIVEVSLRDDQGWIREFDEPGTNLRVHLDLGEPFWRTYTITDVSDDIVSIAVRTQGKGSRAVAELAAGQSVLASGPHGTMTANRVFGGTTALVTAGIGITPSLGLMRGAELSGTEKIKLFHVDRDHRTACLWDRLQKRAHSRQIPVETHHRDTASQGRPGHADLVDWLAGCDNVMVCGPADFTRAVLDASAEAGVPAVHQEIFASPNTGMSEAIAQCSPAEVTLENSGTSFLWEPQQGTLLEALEARGLRADNSCRGGSCGTCAVSLAAGSVIYPVEPAARIAADEVLVCSAVPSGPISLGILEHHHHHH”, for which the protein production entry is reported as “failed”. With “MRVDIVPVGDVPAHVKRQASSSLRSVYDCEVVVASEQDVPTAAYDEARSQYRAAEFIDTATRATSGDKTIAITPHDLFYRRRNYVFGLAYLDGRGCVVSTYRLQTSSDGGFSNRSSSDVFDDRVRKEVVHELGHTLGLEHCDNNRCAMNFSPTVREVDRKEENLCGSCQRTVFLEHHHHHH”, the protein production entry is reported as “not failed”.

On to “MRVEDVMVTDVDTIDITASLEDVLRNYVENAKGSSVVVKEGVRVGIVTTWDVLEAIAEGDDLAEVKVWEVMERDLVTISPRATIKEAAEKMVKNVVWRLLVEEDDEIIGVISATDILRAKMAKRY”, for which the protein production result is on record as “not failed”. Turning to “MRVEVFPVEGLPLIKEGDDLAELISSRVRFEDGDVLVVCSTVISKAEGRIRRLEEFNPSERAKEIAARIGKPAEFVQAVLEESEEVLLDFPFLLVKAKFGNVCVNAGIDASNVEEGSLLLPPLDPDGSAEKLRRRILELTGKRVGVIITDTNGRCFRRGVVGFAIGISGVKAMKDWIGRKDLYGRELEVTVECVADEIAAFANLLMGEGGDGIPAVVVRGLNVAGEGSMEEIYRSEEEDVIRRCLKRCL”, the protein production result is on record as “not failed”.
